Legend:
Experiment in all cases: FACS analysis of cancer cell line with IIA1
Assay type in all cases: binding
[1] = target: T1, α5β1 integrin on the cell surface of 786-0 (Homo sapiens, UniProt P05556+P08648); settings: 786-0 (renal); IIA1 10 μg/ml; background MFI ~5
T1 construct: endogenous in cells
Protocol: (§1) Cells were removed with 5 mM EDTA in Tris-HCl (pH 8.0) and blocked by centrifugation in Hank's balanced salt solution containing 3% heat inactivated FBS, 1% normal goat serum (Sigma) and 1% BSA at 4° C. for 5 minutes. Cells were incubated for 30-60 minutes at 4° C. with the mouse anti-α5β1 antibody, IIA1 (10 μg/ml) in FACS buffer (PBS containing 0.1% BSA). Excess monoclonal antibody was removed by centrifugation and cells were washed two times with FACS buffer prior to resuspending in PE-anti-mouse IgG (H+ L) antibody (Southern Biotech, 1:400 dilution) for 30-60 minutes at 4° C. After washing cells were re-suspended in FACS buffer containing propidium iodide (1 μg/ml). Mean fluorescence intensity (MFI) was measured on a FACSCalibur (Becton Dickinson). Background MFI was ˜5.

[2] = target: T2, α5β1 integrin on the cell surface of A2058 (Homo sapiens, UniProt P05556+P08648); settings: A2058 (melanoma); IIA1 10 μg/ml; background MFI ~5
T2 construct: endogenous in cells
Protocol: as §1

[3] = target: T3, α5β1 integrin on the cell surface of A375 (Homo sapiens, UniProt P05556+P08648); settings: A375 (melanoma); IIA1 10 μg/ml; background MFI ~5
T3 construct: endogenous in cells
Protocol: as §1

[4] = target: T4, α5β1 integrin on the cell surface of A498 (Homo sapiens, UniProt P05556+P08648); settings: A498 (renal); IIA1 10 μg/ml; background MFI ~5
T4 construct: endogenous in cells
Protocol: as §1

[5] = target: T5, α5β1 integrin on the cell surface of A549 (Homo sapiens, UniProt P05556+P08648); settings: A549 (lung); IIA1 10 μg/ml; background MFI ~5
T5 construct: endogenous in cells
Protocol: as §1

[6] = target: T6, α5β1 integrin on the cell surface of C32 (Homo sapiens, UniProt P05556+P08648); settings: C32 (melanoma); IIA1 10 μg/ml; background MFI ~5
T6 construct: endogenous in cells
T6 sequence (P08648 42-894 limits assumed): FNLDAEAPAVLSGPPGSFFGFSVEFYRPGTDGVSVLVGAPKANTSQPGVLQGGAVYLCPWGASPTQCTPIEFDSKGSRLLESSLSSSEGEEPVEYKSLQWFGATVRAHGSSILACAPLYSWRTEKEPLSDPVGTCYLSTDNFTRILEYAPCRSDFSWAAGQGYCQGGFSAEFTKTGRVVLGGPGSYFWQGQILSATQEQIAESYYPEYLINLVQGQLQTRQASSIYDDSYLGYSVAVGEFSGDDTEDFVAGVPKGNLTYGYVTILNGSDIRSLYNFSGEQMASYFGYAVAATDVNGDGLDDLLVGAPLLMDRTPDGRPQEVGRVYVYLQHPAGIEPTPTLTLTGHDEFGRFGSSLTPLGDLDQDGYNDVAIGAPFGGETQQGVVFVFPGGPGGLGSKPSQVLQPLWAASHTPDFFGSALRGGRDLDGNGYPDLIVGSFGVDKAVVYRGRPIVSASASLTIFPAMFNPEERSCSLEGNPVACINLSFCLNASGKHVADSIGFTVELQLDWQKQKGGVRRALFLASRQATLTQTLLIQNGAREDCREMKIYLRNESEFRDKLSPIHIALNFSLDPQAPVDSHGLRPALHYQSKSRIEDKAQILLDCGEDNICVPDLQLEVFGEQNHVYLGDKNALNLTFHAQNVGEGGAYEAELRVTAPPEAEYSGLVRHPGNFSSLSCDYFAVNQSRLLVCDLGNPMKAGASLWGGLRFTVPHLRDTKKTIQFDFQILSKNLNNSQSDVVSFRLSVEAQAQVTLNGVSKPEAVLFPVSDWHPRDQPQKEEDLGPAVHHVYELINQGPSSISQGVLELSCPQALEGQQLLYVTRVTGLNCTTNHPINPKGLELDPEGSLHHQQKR
T6 sequence (P08648 895-1049 limits assumed): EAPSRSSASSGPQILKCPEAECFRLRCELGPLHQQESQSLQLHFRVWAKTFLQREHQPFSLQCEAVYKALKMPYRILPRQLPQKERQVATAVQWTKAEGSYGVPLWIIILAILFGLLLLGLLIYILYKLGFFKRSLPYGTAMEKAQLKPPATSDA
T6 sequence (P05556 21-798): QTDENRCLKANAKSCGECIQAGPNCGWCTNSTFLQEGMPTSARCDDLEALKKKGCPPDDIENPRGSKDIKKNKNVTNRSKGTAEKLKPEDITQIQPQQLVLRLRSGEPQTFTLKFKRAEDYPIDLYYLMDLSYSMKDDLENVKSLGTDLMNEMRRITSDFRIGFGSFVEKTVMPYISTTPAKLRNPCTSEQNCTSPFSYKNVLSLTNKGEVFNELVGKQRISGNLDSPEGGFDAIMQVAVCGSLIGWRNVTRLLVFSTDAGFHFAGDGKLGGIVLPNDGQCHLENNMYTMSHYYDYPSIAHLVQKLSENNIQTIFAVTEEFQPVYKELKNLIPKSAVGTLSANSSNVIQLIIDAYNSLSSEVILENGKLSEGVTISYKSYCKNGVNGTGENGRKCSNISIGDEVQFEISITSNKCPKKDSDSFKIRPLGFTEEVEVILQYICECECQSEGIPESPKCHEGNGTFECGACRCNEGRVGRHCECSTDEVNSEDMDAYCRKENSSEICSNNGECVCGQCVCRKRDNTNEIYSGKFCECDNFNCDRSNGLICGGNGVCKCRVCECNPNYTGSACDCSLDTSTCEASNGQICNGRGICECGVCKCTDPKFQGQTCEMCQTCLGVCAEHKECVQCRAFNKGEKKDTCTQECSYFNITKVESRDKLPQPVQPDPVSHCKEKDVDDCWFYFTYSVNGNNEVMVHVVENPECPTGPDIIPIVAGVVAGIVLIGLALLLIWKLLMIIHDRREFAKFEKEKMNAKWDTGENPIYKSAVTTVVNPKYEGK
Protocol: as §1

[7] = target: T7, α5β1 integrin on the cell surface of CHL-1 (Homo sapiens, UniProt P05556+P08648); settings: CHL-1 (melanoma); IIA1 10 μg/ml; background MFI ~5
T7 construct: endogenous in cells
Protocol: as §1

[8] = target: T8, α5β1 integrin on the cell surface of COLO 357 (Homo sapiens, UniProt P05556+P08648); settings: COLO 357 (pancreas); IIA1 10 μg/ml; background MFI ~5
T8 construct: endogenous in cells
Protocol: as §1

[9] = target: T9, α5β1 integrin on the cell surface of DU145 (Homo sapiens, UniProt P05556+P08648); settings: DU145 (prostate); IIA1 10 μg/ml; background MFI ~5
T9 construct: endogenous in cells
Protocol: as §1

[10] = target: T10, α5β1 integrin on the cell surface of EKVX (Homo sapiens, UniProt P05556+P08648); settings: EKVX (lung); IIA1 10 μg/ml; background MFI ~5
T10 construct: endogenous in cells
Protocol: as §1

[11] = target: T11, α5β1 integrin on the cell surface of ES-2 (Homo sapiens, UniProt P05556+P08648); settings: ES-2 (ovarian); IIA1 10 μg/ml; background MFI ~5
T11 construct: endogenous in cells
Protocol: as §1

[12] = target: T12, α5β1 integrin on the cell surface of H460 (Homo sapiens, UniProt P05556+P08648); settings: H460 (lung); IIA1 10 μg/ml; background MFI ~5
T12 construct: endogenous in cells
T12 sequence (P08648 42-894 limits assumed): as the sequence (P08648 42-894 limits assumed) above
T12 sequence (P08648 895-1049 limits assumed): as the sequence (P08648 895-1049 limits assumed) above
T12 sequence (P05556 21-798): as the sequence (P05556 21-798) above
Protocol: as §1

[13] = target: T13, α5β1 integrin on the cell surface of HCT-116 (Homo sapiens, UniProt P05556+P08648); settings: HCT-116 (colon); IIA1 10 μg/ml; background MFI ~5
T13 construct: endogenous in cells
Protocol: as §1

[14] = target: T14, α5β1 integrin on the cell surface of HT1080 (Homo sapiens, UniProt P05556+P08648); settings: HT1080 (fibrosarcoma); IIA1 10 μg/ml; background MFI ~5
T14 construct: endogenous in cells
Protocol: as §1

[15] = target: T15, α5β1 integrin on the cell surface of HT144 (Homo sapiens, UniProt P05556+P08648); settings: HT144 (melanoma); IIA1 10 μg/ml; background MFI ~5
T15 construct: endogenous in cells
Protocol: as §1

[16] = target: T16, α5β1 integrin on the cell surface of LOX (Homo sapiens, UniProt P05556+P08648); settings: LOX (melanoma); IIA1 10 μg/ml; background MFI ~5
T16 construct: endogenous in cells
Protocol: as §1

[17] = target: T17, α5β1 integrin on the cell surface of MIA PACA-2 (Homo sapiens, UniProt P05556+P08648); settings: MIA PACA-2 (pancreas); IIA1 10 μg/ml; background MFI ~5
T17 construct: endogenous in cells
Protocol: as §1

[18] = target: T18, α5β1 integrin on the cell surface of NW231 (Homo sapiens, UniProt P05556+P08648); settings: NW231 (breast); IIA1 10 μg/ml; background MFI ~5
T18 construct: endogenous in cells
Protocol: as §1

[19] = target: T19, α5β1 integrin on the cell surface of SN12C (Homo sapiens, UniProt P05556+P08648); settings: SN12C (renal); IIA1 10 μg/ml; background MFI ~5
T19 construct: endogenous in cells
Protocol: as §1

[20] = target: T20, α5β1 integrin on the cell surface of SW839 (Homo sapiens, UniProt P05556+P08648); settings: SW839 (renal); IIA1 10 μg/ml; background MFI ~5
T20 construct: endogenous in cells
Protocol: as §1

[21] = target: T21, α5β1 integrin on the cell surface of TK-10 (Homo sapiens, UniProt P05556+P08648); settings: TK-10 (renal); IIA1 10 μg/ml; background MFI ~5
T21 construct: endogenous in cells
Protocol: as §1

[22] = target: T22, α5β1 integrin on the cell surface of UACC-62 (Homo sapiens, UniProt P05556+P08648); settings: UACC-62 (melanoma); IIA1 10 μg/ml; background MFI ~5
T22 construct: endogenous in cells
Protocol: as §1

B1: IIA1: parent mouse IgG1 class anti-α5β1 antibody shown to inhibit α5β1 integrin binding to fibronectin (antibody, V domains shown)
VH: MAVLGLLLCLVTFPSCVLSQVQLKESGPGLVAPSQSLSITCTISGFSLTDYGVHWVRQPPGKGLEWLVVIWSDGSSTYNSALKSRMTIRKDNSKSQVFLIMNSLQTDDSAMYYCARHGTYYGMTTTGDALDYWGQGTSVTVSS
VL: MDFQVQIFSFLLISASVIMSRGQIVLTQSPAIMSASLGERVTMTCTASSSVSSNYLHWYQQKPGSAPNLWIYSTSNLASGVPARFSGSGSGTSYSLTISSMEAEDAATYYCHQYLRSPPTFGGGTKLEIK
modifications: mus muscalus
α5β1 Surface Expression (MFI) [1]: 144.4 MFI
α5β1 Surface Expression (MFI) [2]: 36.2 MFI
α5β1 Surface Expression (MFI) [3]: 156.1 MFI
α5β1 Surface Expression (MFI) [4]: 67.1 MFI
α5β1 Surface Expression (MFI) [5]: 71.41 MFI
α5β1 Surface Expression (MFI) [6]: 5.7 MFI
α5β1 Surface Expression (MFI) [7]: 6.8 MFI
α5β1 Surface Expression (MFI) [8]: 7.8 MFI
α5β1 Surface Expression (MFI) [9]: 87.5 MFI
α5β1 Surface Expression (MFI) [10]: 36.7 MFI
α5β1 Surface Expression (MFI) [11]: 132.8 MFI
α5β1 Surface Expression (MFI) [12]: 87.5 MFI
α5β1 Surface Expression (MFI) [13]: 42.5 MFI
α5β1 Surface Expression (MFI) [14]: 421.7 MFI
α5β1 Surface Expression (MFI) [15]: 102.1 MFI
α5β1 Surface Expression (MFI) [16]: 261.6 MFI
α5β1 Surface Expression (MFI) [17]: 61.9 MFI
α5β1 Surface Expression (MFI) [18]: 132.2 MFI
α5β1 Surface Expression (MFI) [19]: 129.1 MFI
α5β1 Surface Expression (MFI) [20]: 65.8 MFI
α5β1 Surface Expression (MFI) [21]: 36.6 MFI
α5β1 Surface Expression (MFI) [22]: 88.5 MFI

— patent US7662384B2, “Use of anti-α5β1 antibodies to inhibit cancer cell proliferation” (Facet Biotech Corporation, priority 2004, dated 2010)
